Laboratory results as given in the nanobody polyreactivity screen of Harvey et al. (2022).

Experiment: yeast display, Sf9 membrane polyspecificity reagent, FACS + sequencing; frameworks hold sequencing errors
Summary of the method: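 A synthetic nanobody library was expressed on Saccharomyces cerevisiae BJ5465 by galactose induction for 36–48 hours. The library was stained for 1 hour at 4 °C with 10% biotinylated, detergent-solubilized Sf9 membrane reagent and enriched with streptavidin microbeads before FACS. Low and high (top ~1%) gates were set on anti-HA fluorescence for expression and streptavidin fluorescence for reagent binding, and each polyreactivity label reflects the gate of origin.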

Sequence | polyreactivity (PSR sort gate)
QVQLVESGGGLVQAGGSLRLTCAASGRIFLYYTMGWYRQAPGKERELVAAITRSGGSTYYADSVKGRFTISRDNAKNTVYLQMNSLKPEDTAVYYCKRAYVRYVPMNYWGQGTQVTLSS | high polyreactivity
QVQLVESGGGLVQAGGSLRLSCAASGSTFYPYAMGWYRQAPGKERELVAAISSGGSTSYADSVKGRFTISRDNAKNTVYLQMNSLKPEDTAVYYCNASSPGAVPVYYYDYWGQGTQVTVSS | low polyreactivity
QVQLVESGGGLVQAGGSLRLSCAASGRTFTYYGMGWYRQAPGKERELVAAITERGDSTYYADSVKGRFTISRDNAKNTVYLQMNSLKPEDTAVYYCAAAEHLTRPSSPTQDGDHWGQGTQVTVSS | low polyreactivity
QVQLVESGGGLVQAGGSLRLSCAASGSTFRGYAMGWYRQAPGKERELVAAISWSAGSTYYADSVKGRFTISRDNAKNTVYLQMNRLKPEDTAVYYCAKASVALRYYSYSLGRDYWGQGTQVTVSS | low polyreactivity
QVQLVESGGGLVQAGGSLRLSCAASGFTFQYNAMGWYRQAPGKERELVAAITWTGTSTYADSVKGRFTISRDNAKNTVYLQLNSLKPEDTAVYYCAARYYAPRWFSYDYWGQGTQVTVSS | low polyreactivity
QVQLVESGGGLVQAGGSLRLSCAASGSIFESYAMGLYRQAPGKERELVAALTSSGDSTYYADSVKGRFTISRDNAKNTVYLQMYSLNPEDTAVDYCAKRVPTYISTADWVSRYDYWGQGTQVTVSS | low polyreactivity
QVHLGESGGGLVQAGGSLRLSCAASGSTFDRNVIGGYRQAPGKERELVAAISRVSSTNYADSVKGRFTISRDNAKNTVYLQMNSLKPEDTAVYYCAADRAGSIMNYWGQGTQVTVSS | low polyreactivity
QVQLVESGGGLVQAGGSLRLSCAASGFTFRYYAMGWYRQAPGKERELVASISRSGSGTFYADSVKGRFTISRDNAKNTVYLQMNSLKPEDTAVYYCNAVSAAKIPFQKYGYWGQGTQVTVSS | high polyreactivity
QVQLVESGGGLVQAGGSLRLSSAASGSIFGDYVMGWSRQAPGKERELVAAINRGGSTYYADSVKGRFTISRDNAKNTVYLHMNSLKPEDTAVYYCAAGYPSWYYGDPYDSWGQGTQVTVSS | low polyreactivity
QVQLVESGGGLVQAGGSLRLSCAASGRIFYGNAMGWYRQAPGKERELVAAISSGTTTNYADSVKGRFTISRDNAKNTVYLQMNSLKPEDTAVYYCAAGSYSRYLYSLYFDFDYWGQGTQVTVSS | low polyreactivity
QVQLVESGGGLVQAGGSLRLSCAASGAIFDSNAMGWYREAPGTERELVASIDRGGDTNYADSVKGRFTISRDNAKNTVYLQMNSLKPEDTAVYYCAAYYYKWVWIGMDYWGQGTQVTVSS | low polyreactivity
QVQLVESGGGLVQAGGSLRLSCAASGSTFWYYAMGWYRQAPGKERELVAAITRGASTNYADSVKGRFTISRDNAKNTVYLQMNSLKPEDTAVYYSAAGPARWKGYYWGQGTQVTVSS | high polyreactivity
QVQLVESGGGLVQAGGSLRLSCAASGRTIWWYAMGWYRQAPGKERELVAAITWIGGSTYYADSVKGRFTISRDNAKNTVYLQMNSLKPEDTAVYYCATDKDDVSDLGKDYAYFEYDYWGQGTQVTVSS | low polyreactivity
QVQLVESGGGLVQAGASLRLSCAASGRTFHYYVKGWYRQAPGKERELVAAISRSGGRTYYADSVKGRFTISRDNAKNTVYLQMNSLNPEDTAVYFCAARSGYYYSEGAWRRDYWGQGTQVTLSS | high polyreactivity
QVQLVESGGGLVQAGGSLRLSCAASGRTLCVNAMGWYRQAPGKERELVAAISTRGTTTNYADSVKGRFTISRDIAKNTVYLQMNSLKPEDSAVYYCATRTYRTYPRYDYWGQGTQVTVSS | low polyreactivity
QVQLVESGGGLVQAGGSLRLSCAASGFTFPPYGMGWYRQAPGKERELVASISIGGGTYYADSVKGRFTISRDNAQNTVYLQMNSLKPEDTPVYYCAADLGQWSYYEFDYWGQGTQVTVSS | low polyreactivity
QVQLVESGGGLVQAGGSLRLSCAASGLIFYQYAMGWYRQAPGKESELVAAISRSGGRTNYADSVKGRFTISRDNAKNTVYLQMNSLKPEDTAVYYCNAVHYFLYGYYSWGQGTQVSVSS | high polyreactivity
QVQLVESGGGLVQAGGSLRLSCAASGSPFNYYAMGSYRQAPGKERELVAGINRGGSTNYADSVKGRFTISRDNAKNTVYLQMNSLKPEDTAVYYCAVRAYRWRSTLGLYYWGQGTQVTVSS | high polyreactivity
QVQLVDSGGGLVQAGGSLRLSCAASGRNFLWNAMGWDRQAPGKERELVAGISWRGSSTYYAVSVKGRFTISRDNAKNTVYLQMNSLKPEDTAVYYCAAQGRPYRGQRTGAYGYWGQGTQVTVSS | high polyreactivity
QVQLVESGGGLVQAGGSLRLSCAASGSIFGANAMGWYRQAPGTVRELVAAISRRGGSTYYADSVKGRFTISRDNAKNTVHLQMNSLKPEDTAVYYCNTYPQSLGVKYGYWGQGTQVTVSS | high polyreactivity
QVQLVESGGGLVQAGGSLRLSCAASGRIFSVYAMGWYRPAPGKERELVAAITRVGSTNYADSVKGRFTISRDNAKNTVYLQMNSLKPEDTAVYYCAASKYGSLSGYWGQGTQVTVSS | high polyreactivity
QDQLVESGGGLVQAGGSLRLSCAASGITFSGNAKGCYRQAPGKETELVAAISRNGGRTYYADSVKGRFTISRDNAKNTVYLQMNSLKQEDTAVYYCAKDAYGYFRVSAWYYTYDYWGQGTQVTVSS | high polyreactivity

Sequence | polyreactivity (PSR sort gate)
QVQLVESGGGLVQAGGSLRLSCAASGRIFNSYAMGWYRQAPGKERELVAAISSGGSTYYADSVKGRFTFSRDNAKNTVYLQMNSLKPEDTAVYYCADRIWTGRGRKLGYGYDYWGQGTQVTVSS | low polyreactivity
QVQLVESGGGLVQAGGSLRLSCAASGSIFSPYAMGWYRQAPGKERELVAAISFRASTTYYADSVKGRFTISRDNAKNTVYLQMNSLKPEDTAVYYCAASPLYSWFWGLYDYWGQGTQVTVSS | low polyreactivity
QVQLVESGGGLVQAGGSLRLSCAASGSIFTRYTMGWCRQAPGKERELVAVISDSSGRTYYADTVKGRFTISRDNGKNTDYLQMNSLKPEDPAVYYCAAEYSDIYEYWGQGTQVTVSS | low polyreactivity
QVQRVESGGGLVQAGASLRLSCSASGSTFYSNAMGWYRQAPGKERELVAAISGSGGRTYYADSVKGRFTISRDNEKKTVYLQMNSLKPEETAVYFCAVERTRSMGYWGQGTQVTVSS | high polyreactivity
QVQLVESGGGLVQAGGSLRLSCAASGSTLSDNAMGWYRQAPGKERELVASISWSGGTYYADSVKGRFTISRDNAKNTVYLQMNSLKPEDTAVYYCAAYIYYNYSRQYWFDYWGQGTQVTVSS | low polyreactivity
QVQLVESGGGLVQAGGSLRLSCAASGSTFDGYAMGWYRQAPGKERELVAAISYSGSSTYYADSVKGRFTISGDNAKNTVYLQMNSLKPEDTAVVYCAVDDTHPFGPDGGGDYWGQGTQVTVSS | low polyreactivity
QVQLVESGGGLVEAGGSLRLTCAASGIIFYQYAMGWYRQAPGKERELVAAISSRGGSTYYADSVKGRFTISRDNAKNTVYLQMNSLKPEDTAVYYCAAGSTRSTDGYWGQGTQVTVSS | high polyreactivity
QVQLVESGGGLVQAGGSLRLSCAASGRIFGGYVMGWYRQAPGKERELVAAISRRGGSTYYADSVKGRFTISRDNAKNTVYLQMNSLKPEDTAVYYCNVASFSYSYKFDYWGQGTQVTVSS | high polyreactivity
QVQLVESGGGLVQAGGSLRLSCAASGIIFYKYAMGWYRQAPGKERELVAAISYSGTSTYYADSVKGRFTISRDNAKNTVYLQINSLKPEDTAVYYCAAVTYVPRSTNGISLYDYWGQGTQVTVSS | high polyreactivity
QVQLVESGGGLVQAGGSLRLSCAASGRIKGKNAMGWYRQAPGKERELVAAISSTGSTYYADSVKGRFSISRDNAKNTVYLQMNSLKPEDTAVYYCAATVEWWPGGWFDYWGQGTQVTVSS | high polyreactivity
QVQLVESGGGLVQAGGSLRISCAASGFTFQYYAMGWYRQAPGKERELVATITTSGGNTYYADSVKGRFTISRDNEKNTVYLQMNCLNPEDTAVYYCAARRYRASSRGYGYWGQGTQVTVSS | high polyreactivity
QGQLVESGGALVQAGGSLRLSCAPSGRTFHGYAMGGYRQAPGKERELVARINWSDGRTYYADSVKGRFTISRDNAKNTVYLQMNSLKPEDTAVYYCAADKTVSYGPAWYYYWGQGTQVTVSS | low polyreactivity
QVQLVESGGGLVQAGGSLRLSCAASGIIFSDNAMGWYRQAPGKERELVAAIDWSGGSTYYADSVKGRFTISRDNAKNTVYLQMNSMKPEDSAVYDCAAEYRDYVPVNDTGDYWGQGTQVTVSS | low polyreactivity
QVQLVESGGGLVQAGGSLRLSCAASGRNFGAYAMGWYRPAPGKERELVAAITTAGSTHYADSVKGRFTISRDNAKNTVYLQMKSLKPQDTAVYYCAADGIARSYVLFDAYDFLYDYWGQGTQVTVSS | low polyreactivity
QVQLVVSGGGLVQAGGSLRLSCAASGSTFSRNAMGWYRQAPGKERELVASISWSGARTYYADSVKRRFTISRDNAKNTVYLQMNSLKPEDTAVYYCAKFRSYRGPYNFWGQGTQVTVSS | high polyreactivity
QVQLVESGGGLVQAGGSLRLSCAASGLTFASYAMGWYRPAPGKERELVARISRSGGSTYYADSVKGRFTISRDNAKNTVYLQMNSLKPEDTAVYYCAADYIFRRYPVGGIYDYDYWGQGTQVTVSS | high polyreactivity
QVQLVESGGDLVQAGGSLRLSCAASGYTFIVKAMGWYRQAPGKERELVAGISYRGGRTFYADSVKGRFTISRDNAKNNVYLQMNSLKPEDTAVYYCAARKTGIPFYNYDYWGQGTQVTVSS | low polyreactivity
QVQLVESGGGLVQAGGSLRISCAASGSTFSRNAMGWYRQAPGKERELVAAISRRGDTTYYADSVKGRFTISRDNAKNTVYLQRNSLKPEDTGVYYCAASRYGYPKYGYWGQGTQVTVSS | high polyreactivity
QVQLVESGGGLVQAGGSLRLSCAASGSTFGWYAMGWFRQAPGKERELVAAITSGGSTKYADSVKGRFTISRDNAKNTVYLQMNSLKPEDTAVYYCATVRGYYSPVQVIGYFWGQGTQVTVSS | high polyreactivity
QVQLVESGGGLVQEGGSLRLSCAASGSTFTTNVMGWYRQAPGKERELVAAISWSSGSTYYADSVTGRFTISRDNAKNTVYLQMNSLKPEDTAVYYCAARLVIFYPYSRYYYWGQGTQVTVSS | high polyreactivity
QVQLVESGGGLVQAGGSLRLSCAASGRTFKYYAMGWYRQAPGKERELVATISFRGGSTYYADSVKGRFTISRDNAKNTVYLQMNSLKPEDTAVYYCAATTPYYTPRRRNDYWGQGTQVTVSS | high polyreactivity
